Results taken from patent US20210238290A1 (DRAGONFLY THERAPEUTICS, published 2021).

Molecular target: T1, human P-cadherin (CDH3) expressed on cancer cell lines HCT116, H1975 and CAL27 (human, UniProt P22223 108-829)
T1 construct: whole, on cells
Experiment: flow cytometry on H1975, HCT116 and CAL27 cells, MFI fold over background
Source text: Human P-cadherin (CDH3)-expressing cancer cell lines, HCT116, H1975 and CAL27, were used to assess tumor antigen binding of multi-specific binding proteins having a P-cadherin (CDH3) binding site comprising a heavy chain variable domain sequence identical to SEQ ID NO:196 and a light chain variable domain sequence identical to SEQ ID NO:200 (D153 DB), or a P-cadherin (CDH3) binding site comprising a heavy chain variable domain sequence identical to SEQ ID NO:188 and a light chain variable domain sequence identical to SEQ ID NO:192 (TSP7 DB). Multi-specific binding proteins or corresponding monoclonal antibodies (mAb) having the same P-cadherin (CDH3) binding site were diluted and incubated with the cells. Binding was detected using a fluorophore conjugated anti-human IgG secondary antibody. Cells were analyzed by flow cytometry and binding was expressed as mean fluorescence intensity (MFI) normalized to human recombinant IgG1 stained controls to obtain fold over background (FOB) values.

T1 sequence (P22223 108-829): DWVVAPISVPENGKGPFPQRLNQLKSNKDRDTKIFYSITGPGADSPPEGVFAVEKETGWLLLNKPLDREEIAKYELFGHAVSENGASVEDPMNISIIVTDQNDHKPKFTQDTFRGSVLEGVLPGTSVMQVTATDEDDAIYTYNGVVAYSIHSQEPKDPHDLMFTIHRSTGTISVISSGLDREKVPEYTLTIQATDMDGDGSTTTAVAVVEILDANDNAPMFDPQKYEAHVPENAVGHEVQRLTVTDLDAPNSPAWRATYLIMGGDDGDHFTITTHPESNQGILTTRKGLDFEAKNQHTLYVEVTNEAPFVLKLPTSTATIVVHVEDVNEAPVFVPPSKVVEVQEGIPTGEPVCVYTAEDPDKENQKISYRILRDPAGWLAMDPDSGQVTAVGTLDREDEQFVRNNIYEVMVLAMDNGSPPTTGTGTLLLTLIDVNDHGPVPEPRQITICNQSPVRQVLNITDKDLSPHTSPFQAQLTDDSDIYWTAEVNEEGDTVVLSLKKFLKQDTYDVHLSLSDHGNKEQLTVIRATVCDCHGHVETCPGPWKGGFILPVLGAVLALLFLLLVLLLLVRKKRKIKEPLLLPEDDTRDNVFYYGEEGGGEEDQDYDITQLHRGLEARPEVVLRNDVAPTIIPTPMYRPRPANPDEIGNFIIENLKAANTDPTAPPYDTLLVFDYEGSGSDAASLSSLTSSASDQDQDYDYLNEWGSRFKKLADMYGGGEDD

Row | binding result | Binder
1 | binds | anti-P-cadherin mAb (D153 wt mAb) (antibody, V domains shown, it was detected with an anti-human IgG secondary antibody; also called D153 mAb) VH: EVQLVQSGAEVKKPGASVKVSCKASGYTFTSYGISWVRQAPGQGLEWMGWISAYNGNTNYAQKLQGRVTMTTDTSTSTAYMELRSLRSDDTAVYYCATIDTANAFGIWGQGTMVTVSS VL: QSVLTQPPSVSAAPGQKVTISCSGSSSNIGNNYVSWYQQLPGTAPKLLIYDNNKRPSGIPDRFSGSKSGTSATLGITGLQTGDEADYYCGTWDSSLSGVVFGGGTKLTVL
2 | binds | anti-P-cadherin mAb (TSP7 wt mAb) (antibody, V domains shown, it was detected with an anti-human IgG secondary antibody; also called TSP7 mAb) VH: QVQLQESGPELVKPGASVKMSCKASGYSFTAYNMHWVKQSHGKSLEWIGFIDPYSGIITYNQTFKGKATLTVDKSSSTAYMQLNSLTSEDSAVYYCARRGYYDGGFDYWGQGTTLTVSS VL: DIQMTQTTSSLSASLGDRVTISCRASQDITNYLNWYQQKPDGTVKLLIYYTSRLHSGVPSRFSGSGSGTDYSLTISNLEQEDIATYFCQQDSKHPRTFGGGTKLEIK
